The record followed here is US7977459 (TOUDAI TLO, dated 2011).

Values joined by “and” are separate entries in the source; they are usually repeats but may differ in a detail not shown here. Identical values can stand only once.

Test [1] has as its target T1, mouse AdipoR1 (mouse adiponectin receptor 1) (mouse, UniProt Q91VH1 1-375).
T1 construct: also called mAdipoR1
T1 sequence: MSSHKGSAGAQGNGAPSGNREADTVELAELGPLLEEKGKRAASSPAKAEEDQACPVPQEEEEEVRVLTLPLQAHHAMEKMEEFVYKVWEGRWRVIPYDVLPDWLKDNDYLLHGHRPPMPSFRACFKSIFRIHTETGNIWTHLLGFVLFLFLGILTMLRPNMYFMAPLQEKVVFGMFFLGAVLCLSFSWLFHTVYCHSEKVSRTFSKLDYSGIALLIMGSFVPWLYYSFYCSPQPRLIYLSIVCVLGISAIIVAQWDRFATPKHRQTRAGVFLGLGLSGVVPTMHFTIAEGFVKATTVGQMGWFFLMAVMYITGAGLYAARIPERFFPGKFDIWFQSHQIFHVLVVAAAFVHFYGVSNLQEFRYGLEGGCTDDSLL
The test is described as follows: Scatchard analysis of [125I] gAd binding to C2C12 myocytes; high affinity sites, tied to AdipoR1 because AdipoR1 siRNA abrogated them.

For test [2], the target named is T2, mouse AdipoR2 (mouse adiponectin receptor 2) (mouse, UniProt Q8BQS5 76-386).
T2 construct: also called mAdipoR2
T2 sequence: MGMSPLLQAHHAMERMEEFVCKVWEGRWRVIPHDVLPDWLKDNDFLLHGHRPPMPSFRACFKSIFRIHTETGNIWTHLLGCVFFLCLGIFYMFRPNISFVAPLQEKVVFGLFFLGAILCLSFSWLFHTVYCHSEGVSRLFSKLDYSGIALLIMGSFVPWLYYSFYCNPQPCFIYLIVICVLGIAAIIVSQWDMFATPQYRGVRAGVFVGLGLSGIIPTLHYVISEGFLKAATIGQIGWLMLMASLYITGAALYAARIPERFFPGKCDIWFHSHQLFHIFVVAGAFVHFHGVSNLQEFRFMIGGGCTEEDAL
Description: Scatchard analysis of [125I] gAd binding to C2C12 myocytes; intermediate affinity sites, tied to AdipoR2 because AdipoR2 siRNA abrogated them.

In test [3] the target is T2, mouse AdipoR2 (mouse adiponectin …). Description: Scatchard analysis of [125I] Ad binding to C2C12 myocytes; intermediate affinity sites, tied to AdipoR2 because AdipoR2 siRNA abrogated them.

B1: adiponectin consisting solely of the globular domain (globular Adipo) (ligand, mouse, UniProt Q60994 104-247, looked up)
chain: KGEPGEAAYVYRSAFSVGLETRVTVPNVPIRFTKIFYNQQNHYDGSTGKFYCNIPGLYYFSYHITVYMKDVKVSLFKKDKAVLFTYDQYQEKNVDQASGSVLLHLEVGDQVWLQVYGDGDHNGLYADNVNDSTFTGFLLYHDTN
modifications: 125I-labeled at Tyr in the radioligand binding assay; biotinylated with NHS-LC-Biotin or conjugated with FITC in the FACS experiments
notes: domain: globular domain; also called gAd; globular adiponectin
B1: the Kd (commonly the equilibrium constant for the complex coming apart) in test [1] was ~0.06 µg/mL and ~1.14 nM; in test [2] it was ~0.8 µg/mL and ~14.4 nM.

B2: full-length adiponectin (full-length Adipo) (ligand, mouse, UniProt Q60994 18-247, looked up)
chain: EDDVTTTEELAPALVPPPKGTCAGWMAGIPGHPGHNGTPGRDGRDGTPGEKGEKGDAGLLGPKGETGDVGMTGAEGPRGFPGTPGRKGEPGEAAYVYRSAFSVGLETRVTVPNVPIRFTKIFYNQQNHYDGSTGKFYCNIPGLYYFSYHITVYMKDVKVSLFKKDKAVLFTYDQYQEKNVDQASGSVLLHLEVGDQVWLQVYGDGDHNGLYADNVNDSTFTGFLLYHDTN
modifications: 125I-labeled at Tyr in the radioligand binding assay
notes: also called [125I] full-length Adipo
Regarding B2, the Kd in test [3] is ~6.7 µg/mL and ~49.1 nM.
